Data: the supplement of paper PMC10724198
± gives the standard deviation of the averaged measurements.

What was measured:
[1] = tested on: Saccharomyces cerevisiae; experiment: protein stability index of tFT-peptide fusion (C-terminal peptide) (PSI (0-1 scale)); higher = more stable (slower turnover)
Protocol: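 MPS profiling in S. cerevisiae of the tFT-X12 degron library: putative degron peptides plus stable controls, 12 aa, fused to the C-terminus of a sfGFP-mCherry timer. Cells are FACS-sorted into 8 mCherry/sfGFP bins and deep-sequenced. PSI runs from 0 (unstable) to 1 (stable). Backgrounds are wild type, das1Δ and doa10Δ at 30 °C, and wild type, das1Δ, cdc34-1 and cdc53-1 at 37 °C; 2-3 technical replicates each.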

[2] = tested on: Saccharomyces cerevisiae; experiment: as above; details: genetic background: wild type; temperature: 30 C
[3] = genetic background: cdc34-1, temperature: 37 C
[4] = genetic background: cdc53-1, temperature: 37 C
[5] = genetic background: das1 deletion, temperature: 30 C
[6] = genetic background: das1 deletion, temperature: 37 C
[7] = genetic background: doa10 deletion, temperature: 30 C
[8] = genetic background: wild type, temperature: 30 C
[9] = genetic background: wild type, temperature: 37 C
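Note: PSI is a weighted mean of sequencing reads over stability bins, variants kept only with over 10 reads, mCherry proximal and sfGFP distal, peptide attached via GGGS linker.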

Sequence | protein stability index [1, 3] | protein stability index [1, 4] | protein stability index [1, 5] | protein stability index [1, 6] | protein stability index [1, 7] | protein stability index [1, 8] | protein stability index [1, 9] | protein stability index [2]
CVIVCVLVWGRA | 0.156 ± 0.025 | 0.269 ± 0.062 | 0.17 ± 0.046 | 0.329 ± 0.0095 | 0.152 ± 0.0045 | 0.172 ± 0.026 | 0.326 ± 0.013 | 0.24 ± 0.011
CVMWFLLSAYYL | 0.358 ± 0.019 | 0.4288 ± 0.0029 | 0.265 ± 0.037 | 0.4336 ± 0.002 | 0.285 ± 0.013 | 0.267 ± 0.042 | 0.457 ± 0.042 | 0.386 ± 0.061
CVPAPCGRASCR | 0.697 ± 0.013 | 0.7301 ± 0.0034 | 0.64 ± 0.041 | 0.743 ± 0.0076 | 0.63 ± 0.0079 | 0.658 ± 0.018 | 0.706 ± 0.022 | 0.698 ± 0.016
CYSLLFVSVILF | 0.123 ± 0.091 | 0.158 ± 0.036 | 0.151 ± 0.015 | 0.271 ± 0.023 | 0.135 ± 0.01 | 0.138 ± 0.021 | 0.248 ± 0.0038 | 0.218 ± 0.023
CYVFLCGSFVFV | 0.446 ± 0.011 | 0.499 ± 0.0084 | 0.36 ± 0.036 | 0.551 ± 0.014 | 0.317 ± 0.0068 | 0.351 ± 0.023 | 0.515 ± 0.012 | 0.471 ± 0.037
DFLSGRCIFFYV | 0.702 ± 0.029 | 0.797 ± 0.009 | 0.6451 ± 0.0058 | 0.762 ± 0.016 | 0.243 ± 0.014 | 0.277 ± 0.029 | 0.512 ± 0.011 | 0.445 ± 0.0099
DFRGVSVIRHQV | 0.615 ± 0.065 | 0.7327 ± 0.0024 | 0.64 ± 0.015 | 0.7366 ± 0.0065 | 0.126 ± 0.0098 | 0.147 ± 0.018 | 0.308 ± 0.052 | 0.179 ± 0.047
DRTRLFLLLIIA | 0.179 ± 0.0023 | 0.256 ± 0.038 | 0.202 ± 0.028 | 0.4013 ± 0.0035 | 0.139 ± 0.0068 | 0.165 ± 0.016 | 0.273 ± 0.019 | 0.246 ± 0.042
DTHSRARAVLIA | 0.656 ± 0.0091 | 0.719 ± 0.015 | 0.585 ± 0.016 | 0.704 ± 0.01 | 0.2366 ± 0.002 | 0.301 ± 0.019 | 0.509 ± 0.04 | 0.389 ± 0.086
DYARAWRTEVVC | 0.393 ± 0.046 | 0.448 ± 0.025 | 0.328 ± 0.021 | 0.525 ± 0.016 | 0.288 ± 0.015 | 0.332 ± 0.017 | 0.5088 ± 0.0024 | 0.424 ± 0.01
EFEIALTLIRSI | 0.665 ± 0.026 | 0.733 ± 0.0039 | 0.593 ± 0.01 | 0.726 ± 0.011 | 0.304 ± 0.009 | 0.361 ± 0.055 | 0.572 ± 0.031 | 0.49 ± 0.057
EFFILYFFLKVL | 0.195 ± 0.007 | 0.274 ± 0.0064 | 0.21 ± 0.03 | 0.393 ± 0.0076 | 0.104 ± 0.01 | 0.116 ± 0.023 | 0.179 ± 0.0019 | 0.199 ± 0.021
EFVACFRLLVHG | 0.3077 ± 0.003 | 0.368 ± 0.04 | 0.278 ± 0.021 | 0.441 ± 0.012 | 0.2322 ± 0.0015 | 0.269 ± 0.027 | 0.4091 ± 0.0033 | 0.392 ± 0.014
EGLCCGAYFLVF | 0.695 ± 0.038 | 0.7228 ± 0.00076 | 0.584 ± 0.034 | 0.709 ± 0.0098 | 0.558 ± 0.014 | 0.587 ± 0.035 | 0.6751 ± 0.0057 | 0.571 ± 0.14
EGLDVRILIQVI | 0.0334 ± 0.016 | 0.0735 ± 0.0072 | 0.179 ± 0.025 | 0.197 ± 0.0041 | 0.1362 ± 0.0008 | 0.164 ± 0.025 | 0.154 ± 0.019 | 0.294 ± 0.0068
EKTKRGLIQRVV | 0.68 ± 0.064 | 0.721 ± 0.012 | 0.641 ± 0.021 | 0.693 ± 0.015 | 0.247 ± 0.016 | 0.293 ± 0.046 | 0.554 ± 0.025 | 0.3931 ± 0.0028
ESRRGILFIYIN | 0.325 ± 0.049 | 0.601 ± 0.027 | 0.475 ± 0.025 | 0.647 ± 0.038 | 0.0808 ± 0.028 | 0.0867 ± 0.0055 | 0.0749 ± 0.024 | 0.13 ± 0.005
ETCFSFVCSVQC | 0.328 ± 0.013 | 0.325 ± 0.025 | 0.284 ± 0.036 | 0.4019 ± 0.0023 | 0.221 ± 0.012 | 0.281 ± 0.02 | 0.385 ± 0.0093 | 0.398 ± 0.0044
EVFLARKRSMVV | 0.593 ± 0.043 | 0.677 ± 0.058 | 0.537 ± 0.036 | 0.67627 ± 0.00012 | 0.175 ± 0.019 | 0.214 ± 0.015 | 0.418 ± 0.0088 | 0.341 ± 0.03
EWVWVVFSCVSW | 0.303 ± 0.027 | 0.429 ± 0.0099 | 0.307 ± 0.029 | 0.435 ± 0.012 | 0.2932 ± 0.0027 | 0.32 ± 0.012 | 0.432 ± 0.024 | 0.3472 ± 0.0015

Sequence | protein stability index [1, 3] | protein stability index [1, 4] | protein stability index [1, 5] | protein stability index [1, 6] | protein stability index [1, 7] | protein stability index [1, 8] | protein stability index [1, 9] | protein stability index [2]
FAIRMHCLIFRC | 0.123 ± 0.05 | 0.15 ± 0.024 | 0.26 ± 0.048 | 0.343 ± 0.036 | 0.2 ± 0.0056 | 0.124 ± 0.02 | 0.185 ± 0.0043 | 0.19 ± 0.0057
FCSVFAHFLLCH | 0.382 ± 0.011 | 0.443 ± 0.0052 | 0.4 ± 0.013 | 0.49 ± 0.0094 | 0.193 ± 0.005 | 0.207 ± 0.013 | 0.271 ± 0.0043 | 0.264 ± 0.0032
FFCCVLFSIVVY | 0.0536 ± 0.029 | 0.0863 ± 0.019 | 0.129 ± 0.026 | 0.167 ± 0.002 | 0.103 ± 0.0065 | 0.104 ± 0.028 | 0.114 ± 0.024 | 0.171 ± 0.0089
FFFSFSFPFLSF | 0.462 ± 0.014 | 0.481 ± 0.027 | 0.464 ± 0.023 | 0.559 ± 0.0068 | 0.55 ± 0.022 | 0.477 ± 0.018 | 0.555 ± 0.031 | 0.518 ± 0.034
FFFSLFFVLFFA | 0.284 ± 0.035 | 0.23 ± 0.011 | 0.21 ± 0.035 | 0.348 ± 0.061 | 0.323 ± 0.028 | 0.2 ± 0.022 | 0.314 ± 0.013 | 0.22 ± 0.0051
FFGRWWWSFLLA | 0.582 ± 0.038 | 0.634 ± 0.0095 | 0.538 ± 0.019 | 0.663 ± 0.012 | 0.262 ± 0.0098 | 0.261 ± 0.033 | 0.443 ± 0.026 | 0.364 ± 0.026
FFLDVMFLLFFF | 0.501 ± 0.062 |  | 0.399 ± 0.036 | 0.524 ± 0.008 | 0.44 ± 0.022 | 0.399 ± 0.021 | 0.513 ± 0.0088 | 0.445 ± 0.037
FFLLFCASFLRC | 0.281 ± 0.021 | 0.202 ± 0.01 | 0.317 ± 0.011 | 0.433 ± 0.053 | 0.3661 ± 0.0025 | 0.294 ± 0.029 | 0.354 ± 0.0037 | 0.381 ± 0.014
FFLSFICVMLCG | 0.192 ± 0.024 | 0.247 ± 0.024 | 0.173 ± 0.013 | 0.303 ± 0.0073 | 0.165 ± 0.0019 | 0.158 ± 0.011 | 0.2575 ± 0.0025 | 0.237 ± 0.027
FFSGSVFMAVSL | 0.387 ± 0.011 | 0.44 ± 0.0097 | 0.444 ± 0.04 | 0.399 ± 0.017 | 0.467 ± 0.036 | 0.433 ± 0.02 | 0.37901 ± 0.00016 | 0.408 ± 0.008
FFVWGVFLGVSW | 0.229 ± 0.033 | 0.264 ± 0.016 | 0.265 ± 0.043 | 0.406 ± 0.005 | 0.297 ± 0.015 | 0.25 ± 0.026 | 0.362 ± 0.0063 | 0.358 ± 0.012
FGEDFCHLLWCC | 0.623 ± 0.033 | 0.713 ± 0.021 | 0.583 ± 0.026 | 0.725 ± 0.011 | 0.347 ± 0.0051 | 0.374 ± 0.027 | 0.542 ± 0.018 | 0.442 ± 0.014
FGFSFLHLFIFF | 0.429 ± 0.051 | 0.395 ± 0.028 | 0.375 ± 0.033 | 0.519 ± 0.03 | 0.443 ± 0.011 | 0.313 ± 0.038 | 0.457 ± 0.013 | 0.399 ± 0.035
FGGICFAVLLCR | 0.246 ± 0.016 | 0.262 ± 0.0027 | 0.263 ± 0.035 | 0.3926 ± 0.0036 | 0.258 ± 0.0034 | 0.244 ± 0.0097 | 0.357 ± 0.021 | 0.343 ± 0.013
FHICTQLIFITC | 0.06103 ± 0.00047 | 0.0651 ± 0.015 | 0.146 ± 0.029 | 0.198 ± 0.0078 | 0.114 ± 0.0037 | 0.127 ± 0.0084 | 0.145 ± 0.0024 | 0.192 ± 0.025
FILCGFSVVLIG | 0.153 ± 0.033 | 0.245 ± 0.0032 | 0.191 ± 0.036 | 0.395 ± 0.016 | 0.162 ± 0.019 | 0.184 ± 0.048 | 0.372 ± 0.014 | 0.255 ± 0.12
FILLIFLSLLSP | 0.352 ± 0.0047 | 0.416 ± 0.024 | 0.294 ± 0.029 | 0.454 ± 0.01 | 0.26 ± 0.0071 | 0.281 ± 0.043 | 0.427 ± 0.016 | 0.3211 ± 0.0026
FIPPRTYCLMIG | 0.57632 ± 0.00037 | 0.682 ± 0.0096 | 0.58 ± 0.0063 | 0.693 ± 0.011 | 0.219 ± 0.0046 | 0.233 ± 0.026 | 0.297 ± 0.015 | 0.323 ± 0.024
VRWALLGVVVEG | 0.388 ± 0.014 | 0.398 ± 0.0062 | 0.293 ± 0.029 | 0.4742 ± 0.00066 | 0.246 ± 0.0085 | 0.286 ± 0.027 | 0.428 ± 0.013 | 
